{"source": "patent US10487318", "key": {"[1]": {"target": "T1, 33mer peptide (LQLQPFPQPQLPYPQPQLPYPQPQLPYPQPQPF)", "T1 chain": "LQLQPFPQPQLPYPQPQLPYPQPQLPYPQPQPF"}, "[2]": {"target": "T2, Glia_56-79 peptide (LQLQPFPQPQLPYPQPQLPY)", "T2 chain": "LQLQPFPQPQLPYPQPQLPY"}, "[3]": {"target": "T3, α2-gliadin peptide (PQPQLPYSQPQPFR)", "T3 chain": "PQPQLPYSQPQPFR"}, "[4]": {"target": "T4, γ-gliadin peptide (IQPQQPAQL)", "T4 chain": "IQPQQPAQL"}, "[5]": {"target": "T5, fluorescent analogue of gliadin, hexapeptide QPQLPY conjugated to a fluorophore and a quencher", "T5 chain": "QPQLPY"}, "[6]": {"target": "T6, α9-gliadin peptide (QLQPFPQPQLPY)", "T6 chain": "QLQPFPQPQLPY"}}, "data": [{"protein": "Homologue 19 (NCBI YP_005056054) (protein) MPTSSRFASQSRVPLPGSERKPFVPAGAPKAAKTPKVSTAVKTVPATGRIRVSLIVPPKQPLDTKRLGKLDARLSRAQFAARHGADPASVRLVKAFAKEFGLTVEPITQPGRCTVQLSGTCAAMRKAFAISLVEHTTEQGKFRLREGEISLPAELEGHVLAVLGLDNRPQAKPHFRIAKPRATNVSYTPVQVAQMYGFPAGATATGQTIGIIELGGGYRAADLTAYFKTLGLPAPTVTAVPIDGGKNTPGNANGADGEVMLDIEVCAAVAQGAKIAVYFTTNTDQGFIDAITTAVHDSTNKPSVISISWGGPESSWTEQSMTALDAACQAAAAVGVTITVAAGDNGSSDGASGDNVDFPASSPHVLACGGTKLVGSGSTITSEVVWDETSNDEGATGGGVSTVFALPTWQKNANVPSPTTSAGGRGVPDVSGDADPSTGYTIRVDSETTVIGGTSAVAPLWAGLIALANAQNKVAAGFVNPALYAAGAKKAFRDITQGNNGSFSAGPGWDACTGLGSPVGNLVIQAVAPKSTTTKKAKKGKTK", "values": [{"measurement": "Degradation pattern of 33mer (60 min)", "setting": "[1]", "value": "WT-like - minor"}]}, {"protein": "Homologue 15 (NCBI YP_002754884) (protein) MSPIASRRSALPLSERPAPENARALAAVEPDRTMTVSVLVRRKKPLVLADLEGKKLTHREFERRYGASEKDFATIAKFAAGHGLAVDHHASSLARRTVVLRGTARQMQQAFGVTLHDYEDSETQQRYHSFTGAITVPAAHARIIESVLGLDARPIAKPHFRVRKRSAAATGAVSFNPPQVASLYSFPTGVDGSGETIGILELGGGYETSDIQQYFSGLGIQPPTVVAVSVDGAVNAPGNPNGADGEVALDIQVAGSIAPGAKLAVYFAPNTEQGFVDAITTAVHDTANKPSVLSISWGGPESSWPQAAAQSLNNACESAAALGVTITVASGDNGSTDGVQDGQNHVDFPASSPYVLACGGTYLAAVNNGVPQESVWDDLASGGGATGGGVSALFPLPAWQTGANVPGGSMRGVPDVAGDASPESGYNVLVDGQPQVVGGTSAVAPLWAALIALVNQQKGEAAGFVNAALYQNPSAFHDITQGSNGAYAAAPGWDPCTGLGSPMGTAIAKILA", "values": [{"measurement": "Degradation pattern of 33mer (60 min)", "setting": "[1]", "value": "WT-like"}]}, {"protein": "Homologue 6 (NCBI YP_003109679) (protein) MAPEERRTLPGSAMPRPAGAQVLGQIPDDERVEVTVVLQPRAPLPEPGPTPMSRAELADLRSPPEGALEAIARYVAGQGLEVIAADAPRRRIVLAGSAARIAALFGISFVRLQLEGRRYRTYEGEISLPAELAPLVVAVLGLDTRPFARSHRRPAVAPNAPTTAPTVARAYDFPTAYDGRGTTIGFIELGGGFQESDLVRYCEGLGLSTPQVSVVGVDGARNAPTGDPNGPDAEVMLDLEVATGVANGADLVLYMAANTDAAFYSAIATALRDATHAPVAISISWGAPEESYPATTIAAFESVLEEAVHVGVTVLVAAGDQGSTDGVDDGRAHVDYPAASPYVLACGGTRLDLDGTTIVAETVWNDLPNGGATGGGISALFPVPSWQAGIAMPPSANPGAGPGRGVPDVAGNADPDTGYRIVVDGVATVVGGTSAVAPLWAGLVARCHQAGARGGFWNPLLYAARGSSAFHEITVGSNGAYDAGPIWNACCGLGSPNGTAILQTLRA", "values": [{"measurement": "grade and % of peptide after an 80-min incubation", "setting": "[2]", "value": "-; 85%"}, {"measurement": "grade and % of peptide after an 80-min incubation", "setting": "[3]", "value": "-; 87%"}, {"measurement": "grade and % of peptide after an 80-min incubation", "setting": "[4]", "value": "-; 102%"}, {"measurement": "rate of degradation of the fluorescent hexapeptide, pH 4", "setting": "[5]", "value": "no activity was seen for this homologue in the fluorescent experiment conducted at pH 4"}, {"measurement": "grade and % of peptide after an 80-min incubation", "setting": "[6]", "value": "-; 114%"}]}, {"protein": "Homologue 2 (NCBI ZP_04943175) (protein) MQRGTKEGLNMARHLQADREPRIVPESKCLGQCDPAERIHVTIMLRRQEEGQLDALVHQLATGDARAKPVSRDAFAQRFSANPDDIRKTEDFAHRHQLTVDRVDPVESVVVLSGTIAQFEAAFSVKLERFEHRSIGQYRGRSGPIVLPDDIGDAVTAVLGLDSRPQARPHFRFRPPFKPARGAAAVTFTPIQLASLYDFPAGDGAGQCIAIIELGGGYRAADIQQYFRGLGITTPPKLVDVNVGTGRNAPTGEPNGPDGEVALDIEIAGAIAPAAKIAVYFAPNSDAGFIQAVNAAVTDKTNQPSVISISWGGPEAIWQAQSAQAFNRVLQAAAAQGITVCAASGDSGSGDGLQDGADHVDFPASSPYVLGCGGTQLDALPGQGIRSEVTWNDEASGGGAGGGGVSALFDLPAWQQGLKVARADGTTTPLAKRGVPDVAGDASPQTGYEVSVAGTPAVMGGTSAVAPLWAALIARINAANGASAGWINPVLYKHPGALRDITKGSNGTYAAASGWDACTGLGSPNGAQLATILARKPSS", "values": [{"measurement": "grade and % of peptide after an 80-min incubation", "setting": "[2]", "value": "++; 0.2%"}, {"measurement": "grade and % of peptide after an 80-min incubation", "setting": "[3]", "value": "++ (undetect)"}, {"measurement": "grade and % of peptide after an 80-min incubation", "setting": "[4]", "value": "+/-; 65%"}, {"measurement": "rate of degradation of the fluorescent hexapeptide, pH 4.0, 37° C.", "setting": "[5]", "value": "had activity comparable to or better than Kumamolisin under these conditions"}, {"measurement": "activity on peptide (percent)", "setting": "[1]", "value": 31, "unit": "%"}, {"measurement": "grade and % of peptide after an 80-min incubation", "setting": "[6]", "value": "++/-; 37%;"}]}, {"protein": "Homologue 5 (NCBI ZP_09078202) (protein) AGRTSYTPLEVAALYNFPSIHCKDQCIGILELGGGYRPADLQTYFNGLGIPQPNITDVSVGGAANRPTGDPNGPDGEVVLDIEVAAAVTPGAKIAVYFADNSDDGFLNAITTAIHDTRNKPSVISISWGKAEIGWTPQAINAMNQAFRDAAALGVTICCASGDDGSTDRVQDGRYHVDFPASSPYVLACGGTRLESSGSTITQEVVWNEGALGGGATGGGVSDVFDRPNWQANANVPTSANPERRIGRGVPDWAGNADPATGYQILVDGTRAVIGGTSAVAPLFAGLIAIINQKLGHSVGFINPILYNLSAQHNVFHDITSGNNDMSGQNGPYEAQPGWDACTGLGSPDGTKLMNAISEAHRLVSVG", "values": [{"measurement": "grade and % of peptide after an 80-min incubation", "setting": "[2]", "value": "++; 0.4%"}, {"measurement": "grade and % of peptide after an 80-min incubation", "setting": "[3]", "value": "++ (undetect)"}, {"measurement": "grade and % of peptide after an 80-min incubation", "setting": "[4]", "value": "++/-; 40%"}, {"measurement": "grade and % of peptide after an 80-min incubation", "setting": "[6]", "value": "++/-; 34%;"}]}, {"protein": "Homologue 1 (NCBI YP_005536585) (protein) MAPSDVEIVDPVAPEERITVTVLLRRRSSIPDQLIEGPDTLSRAELADRHGADPADVEAVRVAMSGAGLTVVGTDLPSRRVTVAGTAEALMRTFGAELQIVRDASGFQHRARSGELRIPAALDGIVIAVLGLDNRPQAEARFRASQPEAARSFRPDALGRVYRFPANTDGTGQTIAIVELGGGFRQSELDTYFGGLGIPAPQVLAVGVDGGQNLPSGDAGSADGEVLLDIEVAGALAPGARQVVYFAPNTDRGFVDAVTTAVHADPTPAAVSISWGAPEDKWTAQARRAFDAALADAAALGVTVTAAAGDRGSADGEGGGGLHTDFPASSPHLLACGGTKLAVADGGTVASETVWNGGERGGATGGGVSVAFGLPAYQRNAGVDKRRKTGKPGRGVPDVAAVADPATGYEVLVDGEQLVFGGTSAVAPLWAALVARLTQALGRPLGLLNTALYDGAQPGRTQPGFRDVTEGDNDISGKHGPYPARAGWDACTGLGVPDGEALLAALRKPGKE", "values": [{"measurement": "grade and % of peptide after an 80-min incubation", "setting": "[2]", "value": "++; 1.6%"}, {"measurement": "grade and % of peptide after an 80-min incubation", "setting": "[3]", "value": "++ (undetect)"}, {"measurement": "grade and % of peptide after an 80-min incubation", "setting": "[4]", "value": "++/-; 29%"}, {"measurement": "rate of degradation of the fluorescent hexapeptide, pH 4.0, 37° C.", "setting": "[5]", "value": "had activity comparable to or better than Kumamolisin under these conditions"}, {"measurement": "activity on peptide (percent)", "setting": "[1]", "value": 46, "unit": "%"}, {"measurement": "grade and % of peptide after an 80-min incubation", "setting": "[6]", "value": "-; 80%"}]}, {"protein": "Homologue 4 (NCBI ZP_10028298) (protein) MANHPLNGSERECLKDAQPIGKADPNERLEVTMLVRRRSHDAFEKHISALAAQGASAKHIDHDEFTKHFGADSADLAAVHAFAQKHGLSVVESHEARRAVVLSGTVAQFDAAFGVSLQQYEHDGGTYRGRTGPIHLPDELNGVVDAVMGLDNRPQARPSFRTRAQGNVRWTARAAGASTFTPVQLASLYDFPQGDGQNQCIGIIELGGGYRPADLKTYFASLNMKAPSVTAVSVDHGRNHPTGDPNGPDGEVMLDIEVAGAVAPGAKIVVYFAPNTDAGFIDAIGTAIHDTKNKPSVISISWGGPESAWTQQAMNAFDQAFQSAAALGVTICAASGDNGSGDGVGDGADHVDFPASSPYALGCGGTSLQASGNGIASETVWNDGANGGATGGGVSSFFALPAWQEGLRVTRAGGAHSPLAMRGVPDVAGNADPVTGYEVRVDGHDMVIGGTSAVAPLWAGLIARINAIKGAPVGYINPHLYKDPLALVDITKGNNDDFHATAGWDACTGLGRPDGKKVKDAVS", "values": [{"measurement": "grade and % of peptide after an 80-min incubation", "setting": "[2]", "value": "++; 0.6%"}, {"measurement": "grade and % of peptide after an 80-min incubation", "setting": "[3]", "value": "++ (undetect)"}, {"measurement": "grade and % of peptide after an 80-min incubation", "setting": "[4]", "value": "+; 12%"}, {"measurement": "rate of degradation of the fluorescent hexapeptide, pH 4.0, 37° C.", "setting": "[5]", "value": "had activity comparable to or better than Kumamolisin under these conditions"}, {"measurement": "Degradation pattern of 33mer (60 min)", "setting": "[1]", "value": "WT-like"}, {"measurement": "activity on peptide (percent)", "setting": "[1]", "value": 38, "unit": "%"}, {"measurement": "grade and % of peptide after an 80-min incubation", "setting": "[6]", "value": "++/-; 25%;"}]}, {"protein": "Homologue 17 (NCBI YP_004216463) (protein) MAATPRFASQPRVTLPGSQKHPLTTDTEVPPPAPVKAAATKLSATPFTVTVIVKRKNPLNLKQVLKPAGRLTHAAFAKAHGPSPDGVKLVKAFAKEFGLTVAPAPGQGRRALYLTGTAAAMQTAFGVTFATKIMEGTKYRVREGDICLPKELIGHVDAVLGLDNRPQAKPHFRHHKPAATSVSYTPVQVGQLYGFPSGAKATGQTIGLIELGGGFRAADITAYFKTLGQTAPKVTAVLVDKAKNTPTTSSSADGEVMLDIEVAAAVAPGANIAVYFAPNTDQGFIDAISQAVHDTVNKPSVISISWGGPESTWTAQSLAALDAACQSAAALGITITVAAGDDGSTDGVKGTVNHVDFPASSPHVLGCGGTKLLGSGTTITSEVVWNELTANEGATGGGVSNVFPLPTWQAKSNVPKPTVAAGGRGVPDVSGNADPSTGYTVRVDGSTFPIGGTSAVAPLWAGLIALCNAQNKTTAGFINPALYAAAAAKSFRDITSGNNGGFKAGPGWDACTGLGSPIGTAIAKTLAPATKSTSKTAVKNAPEIRFRPHKKAPTKTAAKTPALRRLK", "values": [{"measurement": "Degradation pattern of 33mer (60 min)", "setting": "[1]", "value": "WT-like - minor"}]}, {"protein": "Homologue 16 (NCBI YP_003387700) (protein) MSAFDQLVPLPGSEKTVPDAAPSQTLDPNEVLTVTIRIRRKRTLASLVSTTAPVTEVVSRSEYASRFGADPAIVKQVEAFASAYDLSLVEQSLARRSVLLRGTVAQMEQAFGVSLANYQLADGTVFRGRTGVVNVPSELVEHIEGVFGLDNRPQARAHFQVYKPEKGTKVAPRAGGISYTPPQLARLYNFPTGVTGKGQCIAIIELGGGFRTADIKTYFGGLGLKPPTVVAVSVDGGHNAPSTADSADGEVMLDIDVAGGVAPGAKIVVYFAPNTDQGFLDAITTAMHDTKNKPSVISISWGAAESNWTPQALTSFNQAFQAAAALGITVCAAAGDTGSDDSVGDGKAHVDFPASSPFVLACGGTKLTATDNVIASEVVWHESKTSATGGGVSDVFDLPDYQQKSHVPPSVNDKTRIGRGVPDVAAVADPVTGYAVRVDGSNLVFGGTSAVAPLMAGLIALINQQRGKAVGFIHPLIYANPSAFRDITQGNNTTTTGNKGYAATTGWDACTGLGVADGKKLASVLTATPVA", "values": [{"measurement": "Degradation pattern of 33mer (60 min)", "setting": "[1]", "value": "WT-like"}]}]}
